Target: Human canonical CRB2 (Crumbs homolog 2), Q5IJ48-1
Assay: co-IP (FLAG-IP) and Western blot quantification
Conditions: chain shown with the change; co-transfected in HEK293T cells; three biological replicates; parent: est. 1.0; read off a plot

Chain of Human canonical CRB2 (Crumbs homolog 2), Q5IJ48-1 (Q5IJ48 29-1285): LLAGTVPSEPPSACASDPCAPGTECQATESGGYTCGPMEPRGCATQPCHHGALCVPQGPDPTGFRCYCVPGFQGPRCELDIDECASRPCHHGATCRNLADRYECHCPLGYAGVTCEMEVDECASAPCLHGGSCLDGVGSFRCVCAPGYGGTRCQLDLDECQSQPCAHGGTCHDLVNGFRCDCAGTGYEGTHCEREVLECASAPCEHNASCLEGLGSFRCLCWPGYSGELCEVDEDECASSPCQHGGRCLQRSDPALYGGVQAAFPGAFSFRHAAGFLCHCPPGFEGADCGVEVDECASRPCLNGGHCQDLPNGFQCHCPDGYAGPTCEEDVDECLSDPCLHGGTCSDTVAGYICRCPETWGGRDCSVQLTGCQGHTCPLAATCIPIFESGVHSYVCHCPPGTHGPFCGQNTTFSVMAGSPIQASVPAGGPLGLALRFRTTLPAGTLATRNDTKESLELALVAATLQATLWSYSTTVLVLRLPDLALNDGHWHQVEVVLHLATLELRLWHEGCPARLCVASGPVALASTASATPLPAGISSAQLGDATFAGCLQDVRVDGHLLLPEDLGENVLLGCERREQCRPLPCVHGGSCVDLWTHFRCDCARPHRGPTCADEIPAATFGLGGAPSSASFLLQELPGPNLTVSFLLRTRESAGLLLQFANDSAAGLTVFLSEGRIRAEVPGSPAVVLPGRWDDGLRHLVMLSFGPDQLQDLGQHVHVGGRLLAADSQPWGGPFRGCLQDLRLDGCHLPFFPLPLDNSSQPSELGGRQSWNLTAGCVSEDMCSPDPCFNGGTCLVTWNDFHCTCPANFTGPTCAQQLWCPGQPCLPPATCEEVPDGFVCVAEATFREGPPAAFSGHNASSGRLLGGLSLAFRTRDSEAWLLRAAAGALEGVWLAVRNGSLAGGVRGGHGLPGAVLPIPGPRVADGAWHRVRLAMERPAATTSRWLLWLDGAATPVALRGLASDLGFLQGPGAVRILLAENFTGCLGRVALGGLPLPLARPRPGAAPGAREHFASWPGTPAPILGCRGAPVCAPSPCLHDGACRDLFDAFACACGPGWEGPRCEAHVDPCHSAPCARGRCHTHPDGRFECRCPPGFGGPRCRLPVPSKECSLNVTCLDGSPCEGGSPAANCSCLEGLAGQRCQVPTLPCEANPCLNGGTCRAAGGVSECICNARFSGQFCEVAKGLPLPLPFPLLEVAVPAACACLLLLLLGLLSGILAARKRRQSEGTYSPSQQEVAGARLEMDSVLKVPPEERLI

Row | Binder | ratio to parent
1 | Human canonical CRB1 (Crumbs homolog 1), P82279 p.C681Y (protein) FCNKNNTRCLSNSCQNNSTCKDFSKDNDCSCSDTANNLDKDCDNMKDPCFSNPCQGSATCVNTPGERSFLCKCPPGYSGTICETTIGSCGKNSCQHGGICHQDPIYPVCICPAGYAGRFCEIDHDECASSPCQNGAVCQDGIDGYSCFCVPGYQGRHCDLEVDECASDPCKNEATCLNEIGRYTCICPHNYSGVNCELEIDECWSQPCLNGATCQDALGAYFCDCAPGFLGDHCELNTDECASQPCLHGGLCVDGENRYSCNCTGSGFTGTHCETLMPLCWSKPCHNNATCEDSVDNYTCHCWPGYTGAQCEIDLNECNSNPCQSNGECVELSSEKQYGRITGLPSSFSYHEASGYVCICQPGFTGIHCEEDVNECSSNPCQNGGTCENLPGNYTCHCPFDNLSRTFYGGRDCSDILLGCTHQQCLNNGTCIPHFQDGQHGFSCLCPSGYTGSLCEIATTLSFEGDGFLWVKSGSVTTKGSVCNIALRFQTVQPMALLLFRSNRDVFVKLELLSGYIHLSIQVNNQSKVLLFISHNTSDGEWHFVEVIFAEAVTLTLIDDSCKEKCIAKAPTPLESDQSICAFQNSFLGGLPVGMTSNGVALLNFYNMPSTPSFVGCLQDIKIDWNHITLENISSGSSLNVKAGCVRKDWCESQPYQSRGRCINLWLSYQCDCHRPYEGPNCLREYVAGRFGQDDSTGYVIFTLDESYGDTISLSMFVRTLQPSGLLLALENSTYQYIRVWLERGRLAMLTPNSPKLVVKFVLNDGNVHLISLKIKPYKIELYQSSQNLGFISASTWKIEKGDVIYIGGLPDKQETELNGGFFKGCIQDVRLNNQNLEFFPNPTNNASLNPVLVNVTQGCAGDNSCKSNPCHNGGVCHSRWDDFSCSCPALTSGKACEEVQWCGFSPCPHGAQCQPVLQGFECIANAVFNGQSGQILFRSNGNITRELTNITFGFRTRDANVIILHAEKEPEFLNISIQDSRLFFQLQSGNSFYMLSLTSLQSVNDGTWHEVTLSMTDPLSQTSRWQMEVDNETPFVTSTIATGSLNFLKDNTDIYVGDRAIDNIKGLQGCLSTIEIGGIYLSYFENVHGFINKPQEEQFLKISTNSVVTGCLQLNVCNSNPCLHGGNCEDIYSSYHCSCPLGWSGKHCELNIDECFSNPCIHGNCSDRVAAYHCTCEPGYTGVNCEVDIDNCQSHQCANGATCISHTNGYSCLCFGNFTGKFCRQSRLPSTVCGNEKTNLTCYNGGNCTEFQTELKCMCRPGFTGEWCEKDIDECASDPCVNGGLCQDLLNKFQCLCDVAFAGERCEVDLADDLISDIFTTIGSVTVALLLILLLAIVASVVTSNKRATQGTYSPSRQEKEGSRVEMWNLMPPPAMERLI | 1.1
2 | Human canonical CRB1 (Crumbs homolog 1), P82279 p.C948Y (protein) FCNKNNTRCLSNSCQNNSTCKDFSKDNDCSCSDTANNLDKDCDNMKDPCFSNPCQGSATCVNTPGERSFLCKCPPGYSGTICETTIGSCGKNSCQHGGICHQDPIYPVCICPAGYAGRFCEIDHDECASSPCQNGAVCQDGIDGYSCFCVPGYQGRHCDLEVDECASDPCKNEATCLNEIGRYTCICPHNYSGVNCELEIDECWSQPCLNGATCQDALGAYFCDCAPGFLGDHCELNTDECASQPCLHGGLCVDGENRYSCNCTGSGFTGTHCETLMPLCWSKPCHNNATCEDSVDNYTCHCWPGYTGAQCEIDLNECNSNPCQSNGECVELSSEKQYGRITGLPSSFSYHEASGYVCICQPGFTGIHCEEDVNECSSNPCQNGGTCENLPGNYTCHCPFDNLSRTFYGGRDCSDILLGCTHQQCLNNGTCIPHFQDGQHGFSCLCPSGYTGSLCEIATTLSFEGDGFLWVKSGSVTTKGSVCNIALRFQTVQPMALLLFRSNRDVFVKLELLSGYIHLSIQVNNQSKVLLFISHNTSDGEWHFVEVIFAEAVTLTLIDDSCKEKCIAKAPTPLESDQSICAFQNSFLGGLPVGMTSNGVALLNFYNMPSTPSFVGCLQDIKIDWNHITLENISSGSSLNVKAGCVRKDWCESQPCQSRGRCINLWLSYQCDCHRPYEGPNCLREYVAGRFGQDDSTGYVIFTLDESYGDTISLSMFVRTLQPSGLLLALENSTYQYIRVWLERGRLAMLTPNSPKLVVKFVLNDGNVHLISLKIKPYKIELYQSSQNLGFISASTWKIEKGDVIYIGGLPDKQETELNGGFFKGCIQDVRLNNQNLEFFPNPTNNASLNPVLVNVTQGCAGDNSCKSNPCHNGGVCHSRWDDFSCSCPALTSGKACEEVQWCGFSPCPHGAQCQPVLQGFEYIANAVFNGQSGQILFRSNGNITRELTNITFGFRTRDANVIILHAEKEPEFLNISIQDSRLFFQLQSGNSFYMLSLTSLQSVNDGTWHEVTLSMTDPLSQTSRWQMEVDNETPFVTSTIATGSLNFLKDNTDIYVGDRAIDNIKGLQGCLSTIEIGGIYLSYFENVHGFINKPQEEQFLKISTNSVVTGCLQLNVCNSNPCLHGGNCEDIYSSYHCSCPLGWSGKHCELNIDECFSNPCIHGNCSDRVAAYHCTCEPGYTGVNCEVDIDNCQSHQCANGATCISHTNGYSCLCFGNFTGKFCRQSRLPSTVCGNEKTNLTCYNGGNCTEFQTELKCMCRPGFTGEWCEKDIDECASDPCVNGGLCQDLLNKFQCLCDVAFAGERCEVDLADDLISDIFTTIGSVTVALLLILLLAIVASVVTSNKRATQGTYSPSRQEKEGSRVEMWNLMPPPAMERLI | 1
3 | Human canonical CRB1 (Crumbs homolog 1), P82279 p.C1321S (protein) FCNKNNTRCLSNSCQNNSTCKDFSKDNDCSCSDTANNLDKDCDNMKDPCFSNPCQGSATCVNTPGERSFLCKCPPGYSGTICETTIGSCGKNSCQHGGICHQDPIYPVCICPAGYAGRFCEIDHDECASSPCQNGAVCQDGIDGYSCFCVPGYQGRHCDLEVDECASDPCKNEATCLNEIGRYTCICPHNYSGVNCELEIDECWSQPCLNGATCQDALGAYFCDCAPGFLGDHCELNTDECASQPCLHGGLCVDGENRYSCNCTGSGFTGTHCETLMPLCWSKPCHNNATCEDSVDNYTCHCWPGYTGAQCEIDLNECNSNPCQSNGECVELSSEKQYGRITGLPSSFSYHEASGYVCICQPGFTGIHCEEDVNECSSNPCQNGGTCENLPGNYTCHCPFDNLSRTFYGGRDCSDILLGCTHQQCLNNGTCIPHFQDGQHGFSCLCPSGYTGSLCEIATTLSFEGDGFLWVKSGSVTTKGSVCNIALRFQTVQPMALLLFRSNRDVFVKLELLSGYIHLSIQVNNQSKVLLFISHNTSDGEWHFVEVIFAEAVTLTLIDDSCKEKCIAKAPTPLESDQSICAFQNSFLGGLPVGMTSNGVALLNFYNMPSTPSFVGCLQDIKIDWNHITLENISSGSSLNVKAGCVRKDWCESQPCQSRGRCINLWLSYQCDCHRPYEGPNCLREYVAGRFGQDDSTGYVIFTLDESYGDTISLSMFVRTLQPSGLLLALENSTYQYIRVWLERGRLAMLTPNSPKLVVKFVLNDGNVHLISLKIKPYKIELYQSSQNLGFISASTWKIEKGDVIYIGGLPDKQETELNGGFFKGCIQDVRLNNQNLEFFPNPTNNASLNPVLVNVTQGCAGDNSCKSNPCHNGGVCHSRWDDFSCSCPALTSGKACEEVQWCGFSPCPHGAQCQPVLQGFECIANAVFNGQSGQILFRSNGNITRELTNITFGFRTRDANVIILHAEKEPEFLNISIQDSRLFFQLQSGNSFYMLSLTSLQSVNDGTWHEVTLSMTDPLSQTSRWQMEVDNETPFVTSTIATGSLNFLKDNTDIYVGDRAIDNIKGLQGCLSTIEIGGIYLSYFENVHGFINKPQEEQFLKISTNSVVTGCLQLNVCNSNPCLHGGNCEDIYSSYHCSCPLGWSGKHCELNIDECFSNPCIHGNCSDRVAAYHCTCEPGYTGVNCEVDIDNCQSHQCANGATCISHTNGYSCLCFGNFTGKFCRQSRLPSTVCGNEKTNLTCYNGGNCTEFQTELKCMCRPGFTGEWCEKDIDECASDPCVNGGLCQDLLNKFQSLCDVAFAGERCEVDLADDLISDIFTTIGSVTVALLLILLLAIVASVVTSNKRATQGTYSPSRQEKEGSRVEMWNLMPPPAMERLI | 1
